Here are results for 9 molecules from US12630600B2 (MEDIMMUNE LIMITED, priority 2022, dated 2026).

The target of assay [1] is human GLP-1 receptor (human, UniProt P43220). The assay can be described thus: cell-based or functional assay.
Assay [2] addresses human glucagon receptor (human, UniProt P47871). The assay can be described thus: cell-based or functional assay.

Starred links: 1 amine or outer side, 2 acyl side, 3 side chain; linkers in the order of their positions; H or OH if unused. Non-standard residues stand in square brackets, D forms with d. Groups on a side chain read outwards from the residue. No end group written: not given here. *: point of attachment. C20 diacid = O=C(O)CCCCCCCCCCCCCCCCCCC(=O)*; C18 diacid = O=C(O)CCCCCCCCCCCCCCCCC(=O)*; γGlu = O=C(O)[C@H](CCC(=O)[*:2])N[*:1]; αMeF = C[C@](N)(Cc1ccccc1)C(=O)O; AEEA = NCCOCCOCC(=O)O; Aib = CC(C)(N)C(=O)O

B1: Peptide 520 (peptide)
peptide: H[Aib]QGTFTSDVSK[αMeF]LDTKRARDFVQWLLE[Aib]G-OH
modifications: not fully specified (residue 17)
B1: the entries for the “cAMP production EC50” value in assay [1] and in assay [2] were 0.543 nM and 1.62 nM, respectively.

B2: Peptide 166 (peptide)
peptide: H[Aib]QGTFTSDVSK[αMeF]LDSK([AEEA-AEEA-γGlu-C18 diacid])RARDFVRWLL[Aib]TE-OH
modifications: also: αMePhe at 23 (V)
On to B2, for which the “cAMP production EC50” value stood at 0.048 nM in assay [1] and 0.27 nM in assay [2].

B3: Peptide 152 (peptide)
peptide: H[Aib]QGTFTSDVSK[αMeF]LDSK([AEEA-AEEA-γGlu-C18 diacid])RAQDFVRWLL[Aib]E-OH
modifications: N-terminus assumed
SMILES: CC(C)C[C@H](NC(=O)[C@H](Cc1c[nH]c2ccccc12)NC(=O)[C@H](CCCNC(=N)N)NC(=O)[C@@H](NC(=O)[C@H](Cc1ccccc1)NC(=O)[C@H](CC(=O)O)NC(=O)[C@H](CCC(N)=O)NC(=O)[C@H](C)NC(=O)[C@H](CCCNC(=N)N)NC(=O)[C@H](CCCCNC(=O)COCCOCCNC(=O)COCCOCCNC(=O)CC[C@H](NC(=O)CCCCCCCCCCCCCCCCC(=O)O)C(=O)O)NC(=O)[C@H](CO)NC(=O)[C@H](CC(=O)O)NC(=O)[C@H](CC(C)C)NC(=O)[C@](C)(Cc1ccccc1)NC(=O)[C@H](CCCCN)NC(=O)[C@H](CO)NC(=O)[C@@H](NC(=O)[C@H](CC(=O)O)NC(=O)[C@H](CO)NC(=O)[C@@H](NC(=O)[C@H](Cc1ccccc1)NC(=O)[C@@H](NC(=O)CNC(=O)[C@H](CCC(N)=O)NC(=O)C(C)(C)NC(=O)[C@@H](N)Cc1c[nH]cn1)[C@@H](C)O)[C@@H](C)O)C(C)C)C(C)C)C(=O)N[C@@H](CC(C)C)C(=O)NC(C)(C)C(=O)N[C@@H](CCC(=O)O)C(=O)O
On to B3, for which the “cAMP production EC50” value was determined as 0.0119 nM in assay [1] and 0.0204 nM in assay [2].

B4: Peptide 519 (peptide)
peptide: H[Aib]QGTFTSDVSK[αMeF]LDTK([γGlu-γGlu-AEEA-AEEA-γGlu-γGlu-C18 diacid])RARDFVQWLLE[Aib]G-OH
modifications: N-terminus assumed
SMILES: CC(C)C[C@H](NC(=O)[C@H](Cc1c[nH]c2ccccc12)NC(=O)[C@H](CCC(N)=O)NC(=O)[C@@H](NC(=O)[C@H](Cc1ccccc1)NC(=O)[C@H](CC(=O)O)NC(=O)[C@H](CCCNC(=N)N)NC(=O)[C@H](C)NC(=O)[C@H](CCCNC(=N)N)NC(=O)[C@H](CCCCNC(=O)CC[C@H](NC(=O)CC[C@H](NC(=O)COCCOCCNC(=O)COCCOCCNC(=O)CC[C@H](NC(=O)CC[C@H](NC(=O)CCCCCCCCCCCCCCCCC(=O)O)C(=O)O)C(=O)O)C(=O)O)C(=O)O)NC(=O)[C@@H](NC(=O)[C@H](CC(=O)O)NC(=O)[C@H](CC(C)C)NC(=O)[C@](C)(Cc1ccccc1)NC(=O)[C@H](CCCCN)NC(=O)[C@H](CO)NC(=O)[C@@H](NC(=O)[C@H](CC(=O)O)NC(=O)[C@H](CO)NC(=O)[C@@H](NC(=O)[C@H](Cc1ccccc1)NC(=O)[C@@H](NC(=O)CNC(=O)[C@H](CCC(N)=O)NC(=O)C(C)(C)NC(=O)[C@@H](N)Cc1c[nH]cn1)[C@@H](C)O)[C@@H](C)O)C(C)C)[C@@H](C)O)C(C)C)C(=O)N[C@@H](CC(C)C)C(=O)N[C@@H](CCC(=O)O)C(=O)NC(C)(C)C(=O)NCC(=O)O
With B4, the “cAMP production EC50” value was 0.172 nM in assay [1] and 0.386 nM in assay [2].

B5: Peptide 33 (peptide)
peptide: H[Aib]QGTFTSDVSK[αMeF]LDSK([AEEA-AEEA-γGlu-C18 diacid])RAQDFVQWLE[Aib]T-OH
modifications: N-terminus assumed
SMILES: CC(C)C[C@H](NC(=O)[C@H](Cc1c[nH]c2ccccc12)NC(=O)[C@H](CCC(N)=O)NC(=O)[C@@H](NC(=O)[C@H](Cc1ccccc1)NC(=O)[C@H](CC(=O)O)NC(=O)[C@H](CCC(N)=O)NC(=O)[C@H](C)NC(=O)[C@H](CCCNC(=N)N)NC(=O)[C@H](CCCCNC(=O)COCCOCCNC(=O)COCCOCCNC(=O)CC[C@H](NC(=O)CCCCCCCCCCCCCCCCC(=O)O)C(=O)O)NC(=O)[C@H](CO)NC(=O)[C@H](CC(=O)O)NC(=O)[C@H](CC(C)C)NC(=O)[C@](C)(Cc1ccccc1)NC(=O)[C@H](CCCCN)NC(=O)[C@H](CO)NC(=O)[C@@H](NC(=O)[C@H](CC(=O)O)NC(=O)[C@H](CO)NC(=O)[C@@H](NC(=O)[C@H](Cc1ccccc1)NC(=O)[C@@H](NC(=O)CNC(=O)[C@H](CCC(N)=O)NC(=O)C(C)(C)NC(=O)[C@@H](N)Cc1c[nH]cn1)[C@@H](C)O)[C@@H](C)O)C(C)C)C(C)C)C(=O)N[C@@H](CCC(=O)O)C(=O)NC(C)(C)C(=O)N[C@H](C(=O)O)[C@@H](C)O
On to B5, for which the “cAMP production EC50” value is 0.213 nM in assay [1] and 0.548 nM in assay [2].

B6: Peptide 34 (peptide)
peptide: H[Aib]QGTFTSDVSK[αMeF]LDSK([AEEA-AEEA-γGlu-C18 diacid])RAQDFVQWLL[Aib]E-OH
modifications: N-terminus assumed
SMILES: CC(C)C[C@H](NC(=O)[C@H](Cc1c[nH]c2ccccc12)NC(=O)[C@H](CCC(N)=O)NC(=O)[C@@H](NC(=O)[C@H](Cc1ccccc1)NC(=O)[C@H](CC(=O)O)NC(=O)[C@H](CCC(N)=O)NC(=O)[C@H](C)NC(=O)[C@H](CCCNC(=N)N)NC(=O)[C@H](CCCCNC(=O)COCCOCCNC(=O)COCCOCCNC(=O)CC[C@H](NC(=O)CCCCCCCCCCCCCCCCC(=O)O)C(=O)O)NC(=O)[C@H](CO)NC(=O)[C@H](CC(=O)O)NC(=O)[C@H](CC(C)C)NC(=O)[C@](C)(Cc1ccccc1)NC(=O)[C@H](CCCCN)NC(=O)[C@H](CO)NC(=O)[C@@H](NC(=O)[C@H](CC(=O)O)NC(=O)[C@H](CO)NC(=O)[C@@H](NC(=O)[C@H](Cc1ccccc1)NC(=O)[C@@H](NC(=O)CNC(=O)[C@H](CCC(N)=O)NC(=O)C(C)(C)NC(=O)[C@@H](N)Cc1c[nH]cn1)[C@@H](C)O)[C@@H](C)O)C(C)C)C(C)C)C(=O)N[C@@H](CC(C)C)C(=O)NC(C)(C)C(=O)N[C@@H](CCC(=O)O)C(=O)O
For the molecule B6, the entries for the “cAMP production EC50” value in assay [1] and in assay [2] were 0.0824 nM and 0.161 nM, respectively.

B7: Peptide 518 (peptide)
peptide: H[Aib]QGTFTSDVSK[αMeF]LDTK([AEEA-AEEA-γGlu-γGlu-C18 diacid])RARDFVQWLLE[Aib]G-OH
modifications: N-terminus assumed
SMILES: CC(C)C[C@H](NC(=O)[C@H](Cc1c[nH]c2ccccc12)NC(=O)[C@H](CCC(N)=O)NC(=O)[C@@H](NC(=O)[C@H](Cc1ccccc1)NC(=O)[C@H](CC(=O)O)NC(=O)[C@H](CCCNC(=N)N)NC(=O)[C@H](C)NC(=O)[C@H](CCCNC(=N)N)NC(=O)[C@H](CCCCNC(=O)COCCOCCNC(=O)COCCOCCNC(=O)CC[C@H](NC(=O)CC[C@H](NC(=O)CCCCCCCCCCCCCCCCC(=O)O)C(=O)O)C(=O)O)NC(=O)[C@@H](NC(=O)[C@H](CC(=O)O)NC(=O)[C@H](CC(C)C)NC(=O)[C@](C)(Cc1ccccc1)NC(=O)[C@H](CCCCN)NC(=O)[C@H](CO)NC(=O)[C@@H](NC(=O)[C@H](CC(=O)O)NC(=O)[C@H](CO)NC(=O)[C@@H](NC(=O)[C@H](Cc1ccccc1)NC(=O)[C@@H](NC(=O)CNC(=O)[C@H](CCC(N)=O)NC(=O)C(C)(C)NC(=O)[C@@H](N)Cc1c[nH]cn1)[C@@H](C)O)[C@@H](C)O)C(C)C)[C@@H](C)O)C(C)C)C(=O)N[C@@H](CC(C)C)C(=O)N[C@@H](CCC(=O)O)C(=O)NC(C)(C)C(=O)NCC(=O)O
Turning to B7, the “cAMP production EC50” value came to 0.031 nM in assay [1] and 0.0773 nM in assay [2].

B8: Peptide 36 (peptide)
peptide: H[Aib]QGTFTSDVSK[αMeF]LDSK([AEEA-AEEA-γGlu-C18 diacid])RARDFVQWLL[Aib]T-OH
modifications: N-terminus assumed
SMILES: CC(C)C[C@H](NC(=O)[C@H](Cc1c[nH]c2ccccc12)NC(=O)[C@H](CCC(N)=O)NC(=O)[C@@H](NC(=O)[C@H](Cc1ccccc1)NC(=O)[C@H](CC(=O)O)NC(=O)[C@H](CCCNC(=N)N)NC(=O)[C@H](C)NC(=O)[C@H](CCCNC(=N)N)NC(=O)[C@H](CCCCNC(=O)COCCOCCNC(=O)COCCOCCNC(=O)CC[C@H](NC(=O)CCCCCCCCCCCCCCCCC(=O)O)C(=O)O)NC(=O)[C@H](CO)NC(=O)[C@H](CC(=O)O)NC(=O)[C@H](CC(C)C)NC(=O)[C@](C)(Cc1ccccc1)NC(=O)[C@H](CCCCN)NC(=O)[C@H](CO)NC(=O)[C@@H](NC(=O)[C@H](CC(=O)O)NC(=O)[C@H](CO)NC(=O)[C@@H](NC(=O)[C@H](Cc1ccccc1)NC(=O)[C@@H](NC(=O)CNC(=O)[C@H](CCC(N)=O)NC(=O)C(C)(C)NC(=O)[C@@H](N)Cc1c[nH]cn1)[C@@H](C)O)[C@@H](C)O)C(C)C)C(C)C)C(=O)N[C@@H](CC(C)C)C(=O)NC(C)(C)C(=O)N[C@H](C(=O)O)[C@@H](C)O
B8: the “cAMP production EC50” value in assay [1] was found to be 0.0431 nM; in assay [2], 0.278 nM.

B9: Peptide 153 (peptide)
peptide: H[Aib]QGTFTSDVSK[αMeF]LDSK([AEEA-AEEA-γGlu-C20 diacid])RAQDFVRWLL[Aib]E-OH
modifications: N-terminus assumed
SMILES: CC(C)C[C@H](NC(=O)[C@H](Cc1c[nH]c2ccccc12)NC(=O)[C@H](CCCNC(=N)N)NC(=O)[C@@H](NC(=O)[C@H](Cc1ccccc1)NC(=O)[C@H](CC(=O)O)NC(=O)[C@H](CCC(N)=O)NC(=O)[C@H](C)NC(=O)[C@H](CCCNC(=N)N)NC(=O)[C@H](CCCCNC(=O)COCCOCCNC(=O)COCCOCCNC(=O)CC[C@H](NC(=O)CCCCCCCCCCCCCCCCCCC(=O)O)C(=O)O)NC(=O)[C@H](CO)NC(=O)[C@H](CC(=O)O)NC(=O)[C@H](CC(C)C)NC(=O)[C@](C)(Cc1ccccc1)NC(=O)[C@H](CCCCN)NC(=O)[C@H](CO)NC(=O)[C@@H](NC(=O)[C@H](CC(=O)O)NC(=O)[C@H](CO)NC(=O)[C@@H](NC(=O)[C@H](Cc1ccccc1)NC(=O)[C@@H](NC(=O)CNC(=O)[C@H](CCC(N)=O)NC(=O)C(C)(C)NC(=O)[C@@H](N)Cc1c[nH]cn1)[C@@H](C)O)[C@@H](C)O)C(C)C)C(C)C)C(=O)N[C@@H](CC(C)C)C(=O)NC(C)(C)C(=O)N[C@@H](CCC(=O)O)C(=O)O
On to B9, for which the “cAMP production EC50” value was 0.0412 nM in assay [1] and 0.099 nM in assay [2].
